Assay results: patent publication US20080206139A1, “DELIVERY SYSTEM FOR DIAGNOSTIC AND THERAPEUTIC AGENTS” (The Penn State Research Foundation, priority 2006, published 2008)

How the values were obtained:
U251 glioma cells = test: Flow cytometry of intracellular doxorubicin fluorescence, with or without Pgp inhibitor cyclosporine A; type: cell-based, Human; details: 20 μM drug, 2 h
Protocol: Flow cytometry: Flow cytometry was used to measure total intracellular doxorubicin fluorescence. In this report we refer to fluorescence intensity as intracellular drug content. 1×10^6 cells were exposed to 20 μM of drug as (a) free DXR (b) DXR encapsulated IL13 conjugated liposomes (c) DXR encapsulated unconjugated liposomes for 2 h. All drug treatments and post treatment incubations were performed in complete growth medium. The cells were washed to remove any free adherent DXR using PBS and centrifuged. Cells were released from tissue culture dishes with 0.05% trypsin/0.02% EDTA followed by PBS washing (centrifugation, 5 min 500 g) and resuspended in PBS for flow cytometry assay. The intracellular accumulation of inherently fluorescent doxorubicin was evaluated using a fluorescence activated cell analyzer. A single 15 mW argon ion laser beam (488 nm) was used to excite the fluorescence of DXR. A total of 10000 cells were analyzed for each histogram. Experiments were repeated 3 times and the fluorescence intensities of DXR were expressed in arbitrary units.
Effect of Pgp inhibitor on the internalization of IL13 conjugated liposomes in the glioma cells: About 50000 U251 glioma cells were plated in a small petridish and were exposed to either IL13 conjugated liposomes carrying 20 μM of doxorubicin or the same concentration of free doxorubicin (20 μM) for 2 hours. […]

IL-13Rα2 = molecular target: T1, IL-13Rα2 (Homo sapiens, UniProt Q14627); test: Cytotoxicity neutralization assay with IL-13 and its mutants against cytotoxin IL13-PE38QQR; type: cell-based; details: 100 ng/ml protein; cytotoxin IL13-PE38QQR fixed at 10 ng/ml
T1 sequence (Q14627 27-380): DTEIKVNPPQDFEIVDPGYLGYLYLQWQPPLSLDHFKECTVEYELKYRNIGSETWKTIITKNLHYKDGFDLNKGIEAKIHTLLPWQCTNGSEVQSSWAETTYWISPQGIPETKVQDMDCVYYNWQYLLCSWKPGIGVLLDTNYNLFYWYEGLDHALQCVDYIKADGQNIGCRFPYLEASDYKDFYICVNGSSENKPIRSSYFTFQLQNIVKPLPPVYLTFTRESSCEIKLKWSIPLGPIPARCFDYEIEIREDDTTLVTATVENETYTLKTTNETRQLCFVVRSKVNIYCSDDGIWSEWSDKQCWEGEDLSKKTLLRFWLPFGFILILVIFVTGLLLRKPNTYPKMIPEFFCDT
Protocol: Additionally, position K105 of this region of IL-13 is mutated into a variety of amino acids and the mutants' cytotoxic neutralization potential and binding affinity towards IL-13Rα2 is determined. […] In this titered cytotoxicity neutralization experiment, higher neutralization efficiency against the IL13-PE38QQR cytotoxin, for the mutant IL13.K105R is observed (Madhankumar A. B., Mintz, A., and Debinski, W. (2004) Neoplasia (New York) 6, 15-22). IL13.K105R is able to neutralize the cytotoxicity to 99% at 100 ng/ml concentration when compared with its blocking efficiency at 1000 ng/ml concentration. However, the wild type IL-13 and the mutant IL13.K106R and IL13.R109K have only 86.5%, 86.7% and 80.7% of the cytotoxicity neutralization efficiency with respect to their neutralization efficiency at 1000 ng/ml concentration. […] The high affinity mutant IL13.K105R is used as a ligand to conjugate to liposomes in order to better target the glioma associated IL-13Rα2 receptor.

Compound | intracellular doxorubicin fluorescence (flow cytometry curve shift) (U251 glioma cells) | cytotoxicity neutralization efficiency with respect to neutralization efficiency at 1000 ng/ml (IL-13Rα2) [%]
COc1cccc2c1C(=O)c1c(O)c3c(c(O)c1C2=O)C[C@@](O)(C(=O)CO)C[C@@H]3O[C@H]1C[C@H](N)[C@H](O)[C@H](C)O1 [free DXR, doxorubicin] | increase in the cell fluorescence | –
IL13.K106R: mutant of IL-13 | – | 86.7
wild type IL-13: human cytokine interleukin-13, expressed in E. coli as His-tagged protein | – | 86.5
